Tests used:
[1] = biological target: HLA-A*02:01 presenting MAGE-A4 286-294 peptide (…) (human); experiment: cell-based or functional assay
[2] = biological target: HLA-A*02:01 presenting CARD8 170-178 peptide (…) (human); experiment: cell-based or functional assay
[3] = biological target: HLA-A*02:01 presenting PCDHGC3 337-345 peptide (…) (human); experiment: cell-based or functional assay
[4] = biological target: HLA-A*02:01 presenting CNOT1 1965-1973 peptide (…) (human); experiment: cell-based or functional assay
[5] = biological target: T1, HLA-A*02:01 presenting MRPL37 334-342 peptide (…) (human); experiment: flow cytometry, peptide-pulsed T2 cells;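 on S/N ratio: ratio of peak mean fluorescence intensity across a 12-point threefold antibody dilution series to the MFI with secondary antibody only, live-gated cells by flow cytometry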
T1 construct: On peptide-pulsed T2 cells; also called T2 Pulsed MRPL37 334-342

[6] = biological target: T2, HLA-A*02:01 presenting PSME2 145-153 peptide (…) (human); experiment: flow cytometry, peptide-pulsed T2 cells;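 on S/N ratio: ratio of peak mean fluorescence intensity across a 12-point threefold antibody dilution series to the MFI with secondary antibody only, live-gated cells by flow cytometry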
T2 construct: On peptide-pulsed T2 cells; also called T2 Pulsed PSME2 145-153

[7] = biological target: T3, HLA-A*02:01 presenting HEATR5A 1925-1933 peptide (…) (human); experiment: flow cytometry, peptide-pulsed T2 cells;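 on S/N ratio: ratio of peak mean fluorescence intensity across a 12-point threefold antibody dilution series to the MFI with secondary antibody only, live-gated cells by flow cytometry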
T3 construct: On peptide-pulsed T2 cells

[8] = biological target: T4, HLA-A*02:01 presenting RABGAP1L 408-416 peptide (…) (human); experiment: flow cytometry, peptide-pulsed T2 cells;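 on S/N ratio: ratio of peak mean fluorescence intensity across a 12-point threefold antibody dilution series to the MFI with secondary antibody only, live-gated cells by flow cytometry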
T4 construct: On peptide-pulsed T2 cells; also called T2 Pulsed RABGAP1L 408-416

[9] = biological target: T5, HLA-A*02:01 presenting CARD8 170-178 peptide (…) (human); experiment: flow cytometry, peptide-pulsed T2 cells
T5 construct: On peptide-pulsed T2 cells; also called T2 Pulsed CARD8 170-178

[10] = biological target: T6, HLA-A*02:01 presenting SMIM11A 4-12 peptide (…) (human); experiment: flow cytometry, peptide-pulsed T2 cells
T6 construct: On peptide-pulsed T2 cells; also called T2 Pulsed SMIM11A 4-12

[11] = biological target: T7, HLA-A*02:01 presenting PLEKHH2 790-798 peptide (…) (human); experiment: flow cytometry, peptide-pulsed T2 cells
T7 construct: On peptide-pulsed T2 cells; also called T2 Pulsed PLEKHH2 790-798

[12] = biological target: T8, HLA-A*02:01 presenting PCDHGC3 337-345 peptide (…) (human); experiment: flow cytometry, peptide-pulsed T2 cells
T8 construct: On peptide-pulsed T2 cells; also called T2 Pulsed PCDHGC3 337-345

[13] = biological target: T9, HLA-A*02:01 presenting TEP1 2156-2164 peptide (…) (human); experiment: flow cytometry, peptide-pulsed T2 cells
T9 construct: On peptide-pulsed T2 cells; also called T2 Pulsed TEP1 2156-2164

[14] = biological target: T10, HLA-A*02:01 presenting NBAS 2063-2071 peptide (…) (human); experiment: flow cytometry, peptide-pulsed T2 cells
T10 construct: On peptide-pulsed T2 cells; also called T2 Pulsed NBAS 2063-2071

[15] = biological target: T11, HLA-A*02:01 presenting FN1 2182-2190 peptide (…) (human); experiment: flow cytometry, peptide-pulsed T2 cells
T11 construct: On peptide-pulsed T2 cells; also called T2 Pulsed FN1 2182-2190

[16] = biological target: T12, HLA-A*02:01 presenting CNOT1 1965-1973 peptide (…) (human); experiment: flow cytometry, peptide-pulsed T2 cells
T12 construct: On peptide-pulsed T2 cells; also called T2 Pulsed CNOT1 1965-1973

[17] = biological target: HLA-A*02:01 presenting MAGE-A4 286-294 peptide (…) (human); experiment: cell-based or functional assay; remark: listed apart in the source
[18] = biological target: T13, HLA-A*02:01 presenting AOX1 795-803 peptide (…) (human); experiment: flow cytometry, peptide-pulsed T2 cells
T13 construct: On peptide-pulsed T2 cells; also called T2 Pulsed AOX1 795-803
Description: (§1) Samples were run on an Intellicyt iQue flow cytometer (Intellicyt) and results were analyzed using Forecyte analysis software (Intellicyte) to calculate the mean fluorescent intensity (MFI) after gating for live cells. MFI values were plotted in Graphpad Prism using a four-parameter logistic equation over a 12-point response curve to calculate EC₅₀ values. The secondary antibody alone (i.e. no primary antibody) for each dose-response curve is also included in the analysis as a continuation of the three-fold serial dilution and is represented as the lowest dose. The signal to noise (S/N) was determined by taking the ratio of the highest MFI on the dose response curve to the MFI in the secondary alone wells.

[19] = biological target: T14, HLA-A*02:01 presenting MAGE-A4 286-294 peptide (…) (human); experiment: flow cytometry, peptide-pulsed T2 cells
T14 construct: On peptide-pulsed T2 cells
Description: as §1

[20] = biological target: T1, HLA-A*02:01 presenting MRPL37 334-342 …; experiment: flow cytometry, peptide-pulsed T2 cells; remark: listed apart in the source
Description: as §1

[21] = biological target: T2, HLA-A*02:01 presenting PSME2 145-153 …; experiment: flow cytometry, peptide-pulsed T2 cells; remark: listed apart in the source
Description: as §1

[22] = biological target: T15, HLA-A*02:01 presenting SHTN1 198-206 peptide (…) (human); experiment: flow cytometry, peptide-pulsed T2 cells
T15 construct: On peptide-pulsed T2 cells; also called T2 Pulsed SHTN1 198-206
Description: as §1

[23] = biological target: T3, HLA-A*02:01 presenting HEATR5A …; experiment: flow cytometry, peptide-pulsed T2 cells; remark: listed apart in the source
Description: as §1

[24] = biological target: T4, HLA-A*02:01 presenting RABGAP1L 408-416 …; experiment: flow cytometry, peptide-pulsed T2 cells; remark: listed apart in the source
Description: as §1

[25] = biological target: T5, HLA-A*02:01 presenting CARD8 170-178 …; experiment: flow cytometry, peptide-pulsed T2 cells; remark: listed apart in the source
Description: as §1

[26] = biological target: T6, HLA-A*02:01 presenting SMIM11A 4-12 …; experiment: flow cytometry, peptide-pulsed T2 cells; remark: listed apart in the source
Description: as §1

[27] = biological target: T7, HLA-A*02:01 presenting PLEKHH2 790-798 …; experiment: flow cytometry, peptide-pulsed T2 cells; remark: listed apart in the source
Description: as §1

[28] = biological target: T8, HLA-A*02:01 presenting PCDHGC3 337-345 …; experiment: flow cytometry, peptide-pulsed T2 cells; remark: listed apart in the source
Description: as §1

[29] = biological target: T9, HLA-A*02:01 presenting TEP1 2156-2164 …; experiment: flow cytometry, peptide-pulsed T2 cells; remark: listed apart in the source
Description: as §1

[30] = biological target: T10, HLA-A*02:01 presenting NBAS 2063-2071 …; experiment: flow cytometry, peptide-pulsed T2 cells; remark: listed apart in the source
Description: as §1

[31] = biological target: T11, HLA-A*02:01 presenting FN1 2182-2190 …; experiment: flow cytometry, peptide-pulsed T2 cells; remark: listed apart in the source
Description: as §1

[32] = biological target: T12, HLA-A*02:01 presenting CNOT1 1965-1973 …; experiment: flow cytometry, peptide-pulsed T2 cells; remark: listed apart in the source
Description: as §1

EC50 (M), Jurkat/NF-κB-Luc reporter with pulsed T2 cells [1]: 3e-10 M
Fold change, Jurkat/NF-κB-Luc reporter with pulsed T2 cells [1]: 75.3 fold
EC50 (M), Jurkat/NF-κB-Luc reporter with pulsed T2 cells [2]: > 2e-08 M
Fold change, Jurkat/NF-κB-Luc reporter with pulsed T2 cells [2]: 1.8 fold
EC50 (M), Jurkat/NF-κB-Luc reporter with pulsed T2 cells [3]: > 2e-08 M
Fold change, Jurkat/NF-κB-Luc reporter with pulsed T2 cells [3]: 1 fold
EC50 (M), Jurkat/NF-κB-Luc reporter with pulsed T2 cells [4]: > 2e-08 M
Fold change, Jurkat/NF-κB-Luc reporter with pulsed T2 cells [4]: 1 fold
binding result [5]: no binding
binding result [6]: no binding
binding result [7]: no binding
binding result [8]: no binding
binding result [9]: no binding
binding result [10]: no binding
binding result [11]: no binding
binding result [12]: no binding
binding result [13]: no binding
binding result [14]: no binding
binding result [15]: no binding
binding result [16]: no binding
Fold Activation, NF-κB luciferase, Jurkat + IM-9, with 2 nM mAb5705 (anti-CD28) [17]: 1.1 fold
Fold Activation, NF-κB luciferase, Jurkat + U266, with 2 nM mAb5705 (anti-CD28) [17]: 0.9 fold
S/N ratio [18]: 110
S/N ratio [19]: 244
S/N ratio [20]: 1
S/N ratio [21]: 1
S/N ratio [22]: 5
S/N ratio [23]: 1
S/N ratio [24]: 1
S/N ratio [25]: 1
S/N ratio [26]: 1
S/N ratio [27]: 1
S/N ratio [28]: 1
S/N ratio [29]: 1
S/N ratio [30]: 1
S/N ratio [31]: 1
S/N ratio [32]: 1
B1: bsAb6043 (bispecific antibody, V domains shown)
VH 1: QVQLVESGGGLVKPGGSLRLSCAASGFTFSEYYLTWIRQAPGKGLDWIAYISSSGYNIYYADSVKDRFTISRDNGKNSLFLQMNNLRAEDTAVYFCAREGVTDGMDVWGQGTTVTVSS
VH 2: EVQLVESGGGLVQPGRSLRLSCAASGFTFDDYSMHWVRQAPGKGLEWVSGISWNSGSKGYADSVKGRFTISRDNAKNSLYLQMNSLRAEDTALYYCAKYGSGYGKFYHYGLDVWGQGTTVTVSS
VL: DIQMTQSPSSLSASVGDRVTITCRASQSIDTFLNWYQQKPGKVPKLLIYAASNLESGVPSRFSGSGSGTVFTLTISRLQPEDFATYYCQQSYSIPPITFGQGTRVEIK
notes: Only variable regions are tied to the bispecific; also called MAGE-A4×CD3 (7221G) bispecific antibody
